# B1: Nb70 (VHH)
# VHH: LQESGGGSVQAGGSLRLSCTASTFTYISLYMGWFRQAPGKEREGVAGIYAGGGDTYYADSVKGRFTISQDDAKRTVYLQMNSLKPEDTAMYYCAADRGPSRWDFRSWGQGTQVTVSS
# B2: Nb85 (VHH)
# VHH: LQESGGGSVQAGGSLRLSCVSSEYSGTIFAMGWFRQAPGKEREGVAVVDSAITKHYADSVKGRFTISRDNAKNRLDLQMDSLKPEDTGMYYCARSRGYLAGASATLRPTNYDDWGQGTQVTVSS
# B3: Nb27 (VHH)
# VHH: LQESGGGSVQAGGSLKLSCAASGPIFRRCGMGWYRQAPGKEREVVSGINDAGTASYADSVKGRFTISQDNAKNMLYLQMNSLKTEDTAVYYCAGRKYYDVGNYCSVDLYWGQGTQVTVSS
# B4: Nb72 (VHH)
# VHH: LQKAGGVSEQAGASLRLSCVLSARIYGRCCLLWFRQDPGNREGISSINTDGKTSYTDSGKDRFTVSQYTDYNILQLQMNSLKPDDTAVYYCGATERVGDICTEYKYRGQGTQVTVSS
# B5: Nb67 (VHH)
# VHH: LQESGGGLVQAGGSLRLSCTASGLNVDNYEMGWFRQAPGKEREGIAQISCSGAMTYYADSVKGRFTISRDNAKKTLYLQMNSLTPEDTAMYYCAAQTRVCGLWTSRGPEMESDFDAWGQGTQVTVSS
# B6: TAT-Nb91 recombinant protein (VHH)
# VHH: LQESGGGSVQAGGSLKLSCAASGSTFNSCGMGWYRQVPGKERELVSTISDSDTTTYADAVKGRFSISQDKTKNTLYLQMNSLKTEDTARYYCAARSIFAERVCSIHFDSWGQGTQVTVSS
# notes: TAT cell-penetrating peptide from HIV; Linker; VHH of Nb91, as the VHH of m11; About 19 kDa; The primers carry HindIII and XhoI sites; also called TAT-Nb91-His; not shown: His6, C-terminal, kept
# Target: T1, BVDV NS4B-His recombinant protein (Bovine viral diarrhea virus 1, GenBank …)
# T1 construct: also called recombinant NS4B protein
# Experiment: ELISA; iELISA; NS4B-His or the control BVDV-NS5A-His as coating antigen; the nine nanobodies added; anti-E-tag detection
# Details: one partner purified
row,Binder,binding result
1,B1,binds
2,B2,binds
3,B3,binds
4,B4,binds
5,B5,binds

# Target: T2, BVDV NS4B-His recombinant protein (Bovine viral diarrhea virus 1, GenBank …, UniProt A0A068L3P0)
# T2 construct: also called recombinant NS4B protein
# Experiment: ELISA; iELISA; 96-well plates coated with NS4B protein (400 ng/well); incubated with TAT-Nb91 or Nb91; anti-camel serum (1:2,000) and HRP-conjugated secondary antibody; OD 450 nm
# Details: both partners purified
row,Binder,binding result
1,B6,binds

# Source: article PMC12741062 (Frontiers in Immunology, 2025)
